B1: recombinant HGAL protein (Trx-HGAL fusion protein) (natural protein, human, UniProt Q8N6F7 1-178, looked up)
chain: MGNSLLRENRRQQNTQEMPWNVRMQSPKQRTSRCWDHHIAEGCFCLPWKKILIFEKRQDSQNENERMSSTPIQDNVDQTYSEELCYTLINHRVLCTRPSGNSAEEYYENVPCKAERPRESLGGTETEYSLLHMPSTDPRHARSPEDEYELLMPHRISSHFLQQPRPLMAPSETQFSHL

Tests used:
[1] = molecular target: non-muscle human F-actin (human) (UniProt P60709); assay: co-sedimentation
[2] = molecular target: rabbit skeletal muscle myosin II (rabbit, UniProt Q28641 1-1938; P02602 1-192; P02608 1-170); assay: co-sedimentation
Sequence of rabbit skeletal muscle myosin II (Q28641 whole entry, chain 1 of 3): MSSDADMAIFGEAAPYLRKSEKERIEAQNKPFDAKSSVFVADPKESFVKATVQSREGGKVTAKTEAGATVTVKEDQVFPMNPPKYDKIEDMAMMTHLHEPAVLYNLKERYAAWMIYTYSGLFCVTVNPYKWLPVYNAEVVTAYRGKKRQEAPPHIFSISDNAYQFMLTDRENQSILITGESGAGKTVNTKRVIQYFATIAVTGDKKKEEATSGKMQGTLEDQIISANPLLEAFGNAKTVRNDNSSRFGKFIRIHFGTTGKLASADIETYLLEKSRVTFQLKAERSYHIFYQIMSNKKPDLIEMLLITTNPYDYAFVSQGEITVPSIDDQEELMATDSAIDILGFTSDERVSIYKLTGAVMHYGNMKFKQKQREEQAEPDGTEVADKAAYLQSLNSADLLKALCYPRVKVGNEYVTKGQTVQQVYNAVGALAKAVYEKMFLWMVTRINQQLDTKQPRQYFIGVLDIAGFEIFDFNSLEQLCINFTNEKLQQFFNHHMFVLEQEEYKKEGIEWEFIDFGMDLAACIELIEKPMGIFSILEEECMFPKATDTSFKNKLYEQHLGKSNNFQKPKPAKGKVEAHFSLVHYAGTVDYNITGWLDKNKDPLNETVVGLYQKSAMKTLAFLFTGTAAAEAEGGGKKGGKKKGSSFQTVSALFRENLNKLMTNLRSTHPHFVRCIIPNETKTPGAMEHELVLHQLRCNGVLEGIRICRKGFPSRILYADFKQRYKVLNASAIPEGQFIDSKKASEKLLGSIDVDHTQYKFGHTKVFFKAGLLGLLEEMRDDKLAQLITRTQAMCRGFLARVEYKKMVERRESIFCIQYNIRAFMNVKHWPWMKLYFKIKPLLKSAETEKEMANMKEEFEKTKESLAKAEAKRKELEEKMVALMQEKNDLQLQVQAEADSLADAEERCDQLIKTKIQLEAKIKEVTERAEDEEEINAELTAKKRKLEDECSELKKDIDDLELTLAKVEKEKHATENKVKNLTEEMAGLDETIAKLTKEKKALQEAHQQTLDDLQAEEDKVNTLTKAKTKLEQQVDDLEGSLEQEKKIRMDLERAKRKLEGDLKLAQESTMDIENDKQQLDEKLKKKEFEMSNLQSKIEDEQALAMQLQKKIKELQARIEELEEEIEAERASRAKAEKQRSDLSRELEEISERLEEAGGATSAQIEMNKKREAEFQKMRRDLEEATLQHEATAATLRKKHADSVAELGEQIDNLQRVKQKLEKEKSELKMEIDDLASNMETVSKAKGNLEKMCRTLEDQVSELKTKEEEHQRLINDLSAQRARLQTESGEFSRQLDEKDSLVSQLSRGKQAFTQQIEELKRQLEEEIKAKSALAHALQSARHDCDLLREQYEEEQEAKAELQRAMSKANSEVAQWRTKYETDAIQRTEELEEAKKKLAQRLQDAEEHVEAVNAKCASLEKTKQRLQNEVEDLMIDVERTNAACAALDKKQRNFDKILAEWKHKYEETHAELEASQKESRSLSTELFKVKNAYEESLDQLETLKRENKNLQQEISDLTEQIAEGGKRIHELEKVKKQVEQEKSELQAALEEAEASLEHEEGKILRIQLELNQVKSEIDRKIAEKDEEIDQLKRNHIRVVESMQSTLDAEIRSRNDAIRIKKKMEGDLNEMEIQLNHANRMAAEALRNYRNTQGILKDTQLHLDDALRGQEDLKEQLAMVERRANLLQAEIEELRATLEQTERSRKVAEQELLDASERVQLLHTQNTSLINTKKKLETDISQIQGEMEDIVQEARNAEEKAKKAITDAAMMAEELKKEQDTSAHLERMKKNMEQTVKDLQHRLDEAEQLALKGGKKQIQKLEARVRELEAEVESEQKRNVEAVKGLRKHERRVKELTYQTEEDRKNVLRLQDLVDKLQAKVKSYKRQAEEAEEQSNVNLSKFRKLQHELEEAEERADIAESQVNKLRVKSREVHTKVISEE
Sequence of rabbit skeletal muscle myosin II (P02602 2-192, chain 2 of 3): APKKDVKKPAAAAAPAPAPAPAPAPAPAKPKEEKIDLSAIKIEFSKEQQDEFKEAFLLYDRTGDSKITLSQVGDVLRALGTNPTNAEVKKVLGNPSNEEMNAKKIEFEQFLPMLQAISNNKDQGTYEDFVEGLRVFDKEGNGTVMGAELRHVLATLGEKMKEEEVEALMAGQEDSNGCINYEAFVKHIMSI
Sequence of rabbit skeletal muscle myosin II (P02608 2-170, chain 3 of 3): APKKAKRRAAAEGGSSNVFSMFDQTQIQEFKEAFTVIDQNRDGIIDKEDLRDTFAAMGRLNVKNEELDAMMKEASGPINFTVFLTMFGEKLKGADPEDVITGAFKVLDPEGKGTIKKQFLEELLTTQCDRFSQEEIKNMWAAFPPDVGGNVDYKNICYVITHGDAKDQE

| Molecule | stoichiometry N (molar ratio (to 1)) [1] | stoichiometry N [2] |
| --- | --- | --- |
| recombinant HGAL protein (Trx-HGAL fusion protein) (from UniProt Q8N6F7 1-178) (natural protein) | 5 |  |
| B1 |  | 2.5 molar ratio (to 1) |
